# Measurements from US20140087995A1 (published 2014).
# Numbered stars: 1 amine (or outer) side, 2 acyl side, 3 side chain; on linkers, the order of the positions; unused ones are H or OH. Bridge positions count the residues as written; N and C are the ends. Side chains are listed from the residue outwards. Ends that are not written are not given here. * marks the point of attachment. C20 diacid = O=C(O)CCCCCCCCCCCCCCCCCCC(=O)*; γGlu = O=C(O)[C@H](CCC(=O)[*:2])N[*:1]
# T1: human calcitonin receptor (human, UniProt P30988 25-474)
# T1 sequence (looked up): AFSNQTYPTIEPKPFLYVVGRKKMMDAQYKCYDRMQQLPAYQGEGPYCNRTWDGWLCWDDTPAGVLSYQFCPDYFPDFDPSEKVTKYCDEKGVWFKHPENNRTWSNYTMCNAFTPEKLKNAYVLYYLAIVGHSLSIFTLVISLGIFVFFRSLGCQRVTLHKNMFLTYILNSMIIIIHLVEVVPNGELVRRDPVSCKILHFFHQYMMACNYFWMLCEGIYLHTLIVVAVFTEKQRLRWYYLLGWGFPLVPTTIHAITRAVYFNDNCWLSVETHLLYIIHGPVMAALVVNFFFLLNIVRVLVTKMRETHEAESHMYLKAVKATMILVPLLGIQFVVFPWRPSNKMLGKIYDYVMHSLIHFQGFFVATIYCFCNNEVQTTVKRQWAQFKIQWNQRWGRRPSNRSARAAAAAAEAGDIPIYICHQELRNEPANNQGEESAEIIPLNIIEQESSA
# Target: T1, human calcitonin receptor
# Assay: cell-based or functional assay
row,Binder,hCTR funct. EC50 (pM)
1,"{C20 diacid-γGlu}-GRCNTATCATQRLAHFLRHSSPNFGAIPSSTNVGSNTY-NH2 (disulfide 3-8; SMILES CC[C@H](C)[C@H](NC(=O)[C@H](C)NC(=O)CNC(=O)[C@H](Cc1ccccc1)NC(=O)[C@H](CC(N)=O)NC(=O)[C@@H]1CCCN1C(=O)[C@H](CO)NC(=O)[C@H](CO)NC(=O)[C@H](Cc1c[nH]cn1)NC(=O)[C@H](CCCNC(=N)N)NC(=O)[C@H](CC(C)C)NC(=O)[C@H](Cc1ccccc1)NC(=O)[C@H](Cc1c[nH]cn1)NC(=O)[C@H](C)NC(=O)[C@H](CC(C)C)NC(=O)[C@H](CCCNC(=N)N)NC(=O)[C@H](CCC(N)=O)NC(=O)[C@@H](NC(=O)[C@H](C)NC(=O)[C@@H]1CSSC[C@H](NC(=O)[C@H](CCCNC(=N)N)NC(=O)CNC(=O)CC[C@H](NC(=O)CCCCCCCCCCCCCCCCCCC(=O)O)C(=O)O)C(=O)N[C@@H](CC(N)=O)C(=O)N[C@@H]([C@@H](C)O)C(=O)N[C@@H](C)C(=O)N[C@@H]([C@@H](C)O)C(=O)N1)[C@@H](C)O)C(=O)N1CCC[C@H]1C(=O)N[C@@H](CO)C(=O)N[C@@H](CO)C(=O)N[C@H](C(=O)N[C@@H](CC(N)=O)C(=O)N[C@H](C(=O)NCC(=O)N[C@@H](CO)C(=O)N[C@@H](CC(N)=O)C(=O)N[C@H](C(=O)N[C@@H](Cc1ccc(O)cc1)C(N)=O)[C@@H](C)O)C(C)C)[C@@H](C)O, N-terminal extension by Gly; synthetic peptide amide; also called compound 99)",818 pM
2,"K([γGlu-γGlu-C20 diacid])CNTATCATQRLAEFLRHSSNNPGAILSSTNVGPETY-NH2 (disulfide 2-7; N-terminus assumed; SMILES CC[C@H](C)[C@H](NC(=O)[C@H](C)NC(=O)CNC(=O)[C@@H]1CCCN1C(=O)[C@H](CC(N)=O)NC(=O)[C@H](CC(N)=O)NC(=O)[C@H](CO)NC(=O)[C@H](CO)NC(=O)[C@H](Cc1c[nH]cn1)NC(=O)[C@H](CCCNC(=N)N)NC(=O)[C@H](CC(C)C)NC(=O)[C@H](Cc1ccccc1)NC(=O)[C@H](CCC(=O)O)NC(=O)[C@H](C)NC(=O)[C@H](CC(C)C)NC(=O)[C@H](CCCNC(=N)N)NC(=O)[C@H](CCC(N)=O)NC(=O)[C@@H](NC(=O)[C@H](C)NC(=O)[C@@H]1CSSC[C@H](NC(=O)[C@@H](N)CCCCNC(=O)CC[C@H](NC(=O)CC[C@H](NC(=O)CCCCCCCCCCCCCCCCCCC(=O)O)C(=O)O)C(=O)O)C(=O)N[C@@H](CC(N)=O)C(=O)N[C@@H]([C@@H](C)O)C(=O)N[C@@H](C)C(=O)N[C@@H]([C@@H](C)O)C(=O)N1)[C@@H](C)O)C(=O)N[C@@H](CC(C)C)C(=O)N[C@@H](CO)C(=O)N[C@@H](CO)C(=O)N[C@H](C(=O)N[C@@H](CC(N)=O)C(=O)N[C@H](C(=O)NCC(=O)N1CCC[C@H]1C(=O)N[C@@H](CCC(=O)O)C(=O)N[C@H](C(=O)N[C@@H](Cc1ccc(O)cc1)C(N)=O)[C@@H](C)O)C(C)C)[C@@H](C)O, synthetic peptide amide)",89600 pM
3,"K([γGlu-γGlu-C20 diacid])CNTATCATQRLASFLRHSSPNFGAIPSSTNVGPETY-NH2 (disulfide 2-7; N-terminus assumed; SMILES CC[C@H](C)[C@H](NC(=O)[C@H](C)NC(=O)CNC(=O)[C@H](Cc1ccccc1)NC(=O)[C@H](CC(N)=O)NC(=O)[C@@H]1CCCN1C(=O)[C@H](CO)NC(=O)[C@H](CO)NC(=O)[C@H](Cc1c[nH]cn1)NC(=O)[C@H](CCCNC(=N)N)NC(=O)[C@H](CC(C)C)NC(=O)[C@H](Cc1ccccc1)NC(=O)[C@H](CO)NC(=O)[C@H](C)NC(=O)[C@H](CC(C)C)NC(=O)[C@H](CCCNC(=N)N)NC(=O)[C@H](CCC(N)=O)NC(=O)[C@@H](NC(=O)[C@H](C)NC(=O)[C@@H]1CSSC[C@H](NC(=O)[C@@H](N)CCCCNC(=O)CC[C@H](NC(=O)CC[C@H](NC(=O)CCCCCCCCCCCCCCCCCCC(=O)O)C(=O)O)C(=O)O)C(=O)N[C@@H](CC(N)=O)C(=O)N[C@@H]([C@@H](C)O)C(=O)N[C@@H](C)C(=O)N[C@@H]([C@@H](C)O)C(=O)N1)[C@@H](C)O)C(=O)N1CCC[C@H]1C(=O)N[C@@H](CO)C(=O)N[C@@H](CO)C(=O)N[C@H](C(=O)N[C@@H](CC(N)=O)C(=O)N[C@H](C(=O)NCC(=O)N1CCC[C@H]1C(=O)N[C@@H](CCC(=O)O)C(=O)N[C@H](C(=O)N[C@@H](Cc1ccc(O)cc1)C(N)=O)[C@@H](C)O)C(C)C)[C@@H](C)O, synthetic peptide amide; also called compound 120)",887 pM

# The next lines start with the values.
row,hCTR funct. EC50 (pM),Binder
1,1730 pM,"{C20 diacid-γGlu}-GRCNTATCATQRLAHFLRHSSPNFGAIPSSTNVGHNTY-NH2 (disulfide 3-8; SMILES CC[C@H](C)[C@H](NC(=O)[C@H](C)NC(=O)CNC(=O)[C@H](Cc1ccccc1)NC(=O)[C@H](CC(N)=O)NC(=O)[C@@H]1CCCN1C(=O)[C@H](CO)NC(=O)[C@H](CO)NC(=O)[C@H](Cc1c[nH]cn1)NC(=O)[C@H](CCCNC(=N)N)NC(=O)[C@H](CC(C)C)NC(=O)[C@H](Cc1ccccc1)NC(=O)[C@H](Cc1c[nH]cn1)NC(=O)[C@H](C)NC(=O)[C@H](CC(C)C)NC(=O)[C@H](CCCNC(=N)N)NC(=O)[C@H](CCC(N)=O)NC(=O)[C@@H](NC(=O)[C@H](C)NC(=O)[C@@H]1CSSC[C@H](NC(=O)[C@H](CCCNC(=N)N)NC(=O)CNC(=O)CC[C@H](NC(=O)CCCCCCCCCCCCCCCCCCC(=O)O)C(=O)O)C(=O)N[C@@H](CC(N)=O)C(=O)N[C@@H]([C@@H](C)O)C(=O)N[C@@H](C)C(=O)N[C@@H]([C@@H](C)O)C(=O)N1)[C@@H](C)O)C(=O)N1CCC[C@H]1C(=O)N[C@@H](CO)C(=O)N[C@@H](CO)C(=O)N[C@H](C(=O)N[C@@H](CC(N)=O)C(=O)N[C@H](C(=O)NCC(=O)N[C@@H](Cc1c[nH]cn1)C(=O)N[C@@H](CC(N)=O)C(=O)N[C@H](C(=O)N[C@@H](Cc1ccc(O)cc1)C(N)=O)[C@@H](C)O)C(C)C)[C@@H](C)O, N-terminal extension by Gly; synthetic peptide amide; also called compound 100)"
2,841 pM,"K([γGlu-C20 diacid])CNTATCATQRLAEFLRHSSPNFGAIPSSTNVGPETY-NH2 (disulfide 2-7; N-terminus assumed; SMILES CC[C@H](C)[C@H](NC(=O)[C@H](C)NC(=O)CNC(=O)[C@H](Cc1ccccc1)NC(=O)[C@H](CC(N)=O)NC(=O)[C@@H]1CCCN1C(=O)[C@H](CO)NC(=O)[C@H](CO)NC(=O)[C@H](Cc1c[nH]cn1)NC(=O)[C@H](CCCNC(=N)N)NC(=O)[C@H](CC(C)C)NC(=O)[C@H](Cc1ccccc1)NC(=O)[C@H](CCC(=O)O)NC(=O)[C@H](C)NC(=O)[C@H](CC(C)C)NC(=O)[C@H](CCCNC(=N)N)NC(=O)[C@H](CCC(N)=O)NC(=O)[C@@H](NC(=O)[C@H](C)NC(=O)[C@@H]1CSSC[C@H](NC(=O)[C@@H](N)CCCCNC(=O)CC[C@H](NC(=O)CCCCCCCCCCCCCCCCCCC(=O)O)C(=O)O)C(=O)N[C@@H](CC(N)=O)C(=O)N[C@@H]([C@@H](C)O)C(=O)N[C@@H](C)C(=O)N[C@@H]([C@@H](C)O)C(=O)N1)[C@@H](C)O)C(=O)N1CCC[C@H]1C(=O)N[C@@H](CO)C(=O)N[C@@H](CO)C(=O)N[C@H](C(=O)N[C@@H](CC(N)=O)C(=O)N[C@H](C(=O)NCC(=O)N1CCC[C@H]1C(=O)N[C@@H](CCC(=O)O)C(=O)N[C@H](C(=O)N[C@@H](Cc1ccc(O)cc1)C(N)=O)[C@@H](C)O)C(C)C)[C@@H](C)O, synthetic peptide amide)"
